# Experimental data reported in paper doi:10.1101/2025.02.16.638521 (bioRxiv, 2025).
# Experiments:
# [1] = target: tagless Themis^1-563 (co-expressed with His-tagged Grb2^FL) (human, UniProt Q8N1K5); experiment: cryo-EM structure
# [2] = target: T1, Themis^1-563 (truncated Themis, residues 1-563) (human, UniProt Q8N1K5); experiment: cryo-EM structure
# [3] = target: Themis^1-563-Grb2^FL complex (co-expressed, pre-formed) (human, UniProt Q8N1K5;P62993); experiment: SEC-MALS
# [4] = target: T1, Themis^1-563 (truncated Themis, …); experiment: BLI
# [5] = target: full-length Grb2 (Grb2^FL) (human, UniProt P62993 1-217); experiment: SEC-MALS
# Sequence of full-length Grb2 (Grb2^FL) (P62993 whole entry): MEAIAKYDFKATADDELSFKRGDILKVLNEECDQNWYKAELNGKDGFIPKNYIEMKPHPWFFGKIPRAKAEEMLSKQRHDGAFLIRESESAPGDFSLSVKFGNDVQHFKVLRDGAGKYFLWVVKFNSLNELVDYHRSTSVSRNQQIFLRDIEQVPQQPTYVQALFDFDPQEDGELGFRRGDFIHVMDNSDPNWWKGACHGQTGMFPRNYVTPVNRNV
# Sequence of Themis^1-563-Grb2^FL complex (co-expressed, pre-formed) (P62993 whole entry, the tested form may be a part, one chain of several): as the sequence (P62993 whole entry) above
binder,measurement,setting,value
PMb256 (Pro-Macrobody of Nb256) (VHH) VHH: QVQLQESGGGLVQAGGSLRLSCAASGRTFSTYAMGWFRQAPGKEREFVAAILWSDGSTYYADSVKGRFTISRDNAKNTVYLQMNSLKPEDTAVYYCAADYTGVRYDYWGQGTQVTVPP,binding result,[1],binds
same,binding result,[2],binds
Nb256 (Themis-specific single domain VHH camelid antibody fragment) (VHH) VHH: QVQLQESGGGLVQAGGSLRLSCAASGRTFSTYAMGWFRQAPGKEREFVAAILWSDGSTYYADSVKGRFTISRDNAKNTVYLQMNSLKPEDTAVYYCAADYTGVRYDYWGQGTQVTVPP,binding result,[3],binds
same,binding result,[4],binds
tagless Themis^1-563 (co-expressed with His-tagged Grb2^FL) (domain or fragment) MALSLEEFVHSLDLRTLPRVLEIQAGIYLEGSIYEMFGNECCFSTGEVIKITGLKVKKIIAEICEQIEGCESLQPFELPMNFPGLFKIVADKTPYLTMEEITRTIHIGPSRLGHPCFYHQKDIKLENLIIKQGEQIMLNSVEEIDGEIMVSCAVARNHQTHSFNLPLSQEGEFYECEDERIYTLKEIVEWKIPKNRTRTVNLTDFSNKWDSTNPFPKDFYGTLILKPVYEIQGVMKFRKDIIRILPSLDVEVKDITDSYDANWFLQLLSTEDLFEMTSKEFPIVTEVIEAPEGNHLPQSILQPGKTIVIHKKYQASRILASEIRSNFPKRHFLIPTSYKGKFKRRPREFPTAYDLEIAKSEKEPLHVVATKAFHSPHDKLSSVSVGDQFLVHQSETTEVLCEGIKKVVNVLACEKILKKSYEAALLPLYMEGGFVEVIHDKKQYPISELCKQFRLPFNVKVSVRDLSIEEDVLAATPGLQLEEDITDSYLLISDFANPTECWEIPVGRLNMTVQLVSNFSRDAEPFLVRTLVEEITEEQYYMMRRYESSASHPPPRPPKHPSV,stoichiometry N,[5],1
